Data set [1] concerns the molecule itself. The experiment in a line: immunoblot for ASC over incubation time (self-association). For orientation: A western blot detects proteins with antibodies after separation by electrophoresis.
The target in a further data set is T1, TAMRA-labelled Aβ1-42 (UniProt P05067 672-713, TAMRA label (position not given)).
T1 construct: domain: Aβ1-42; also called TAMRA-Aβ1-42; TAMRA-Aβ
The experiment in a line: flow cytometry of supernatants of immunostimulated primary microglia incubated with Aβ1-42. The method, then: Supernatants containing ASC specks were subsequently incubated with Aβ₁₋₄₂ for 6 h and thereafter analyzed by flow cytometry. (b) Upper panel: Immunoprecipitation and immunoblot detection of ASC in unstimulated, immunoactivated wildtype (wt) and ASC knockout (ASC^{-/-}) macrophages. ASC monomer detection is restricted to supernatants of immunoactivated, ASC-competent wt cells and absent in unstimulated wt cells or ASC^{-/-} macrophages. Lower panel: Immunoprecipitation of ASC followed by immunoblot detection of Aβ under the same experimental conditions as described for the upper panel. ASC bound Aβ is exclusively detected in supernatants derived from immunoactivated wt macrophages but not from unstimulated wt or ASC^{-/-} cells. (c) Upper panel: Immunoprecipitation of ASC and immunoblot detection of ASC in unstimulated, immunoactivated wt and ASC^{-/-} microglia. ASC monomer detection is restricted to supernatants of immunoactivated ASC competent wt cells and absent in unstimulated wt cells or ASC^{-/-} macrophages. […] ASC bound Aβ is exclusively detected in supernatants derived from immunoactivated wt microglia but not from unstimulated wt or ASC^{-/-} cells. […] (f) Flow cytometry quantification of ASC-TAMRA-labelled […] after immunostimulation of microglia. […]
(In general: In flow cytometry, cells or beads pass a laser one at a time.)

T1 sequence (P05067 672-713 limits assumed): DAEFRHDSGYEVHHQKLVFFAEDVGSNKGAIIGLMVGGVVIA

B1: recombinant mutant ASC specks (recASC; K21A, K22A and K26A) in the ASC-PYD domain (other)
chain: MGRARDAILDALENLTAEELAAFKLALLSVPLREGYGRIPRGALLSMDALDLTDKLVSFYLETYGAELTANVLRDMGLQEMAGQLQAATHQGSGAAPAGIQAPPQSAAKPGLHFIDQHRAALIARVTNVEWLLDALYGKVLTDEQYQAVRAEPTNPSKMRKLFSFTPAWNWTCKDLLLQALRESQSYLVEDLERS
notes: Made and prepared as the wild-type recombinant protein; also called recASC K21A, K22A, K26A; ASC-PYD mutant; not shown: TEV protease cleavage site; mCherry; C-terminal hexa-histidine tag from pET-23a
With B1, in data set [1], the binding result is on record as “no binding”.

B2: ASC specks released by immunostimulated wild-type primary murine microglia or murine macrophages (other, UniProt Q9EPB4 1-193, looked up)
chain: MGRARDAILDALENLSGDELKKFKMKLLTVQLREGYGRIPRGALLQMDAIDLTDKLVSYYLESYGLELTMTVLRDMGLQELAEQLQTTKEESGAVAAAASVPAQSTARTGHFVDQHRQALIARVTEVDGVLDALHGSVLTEGQYQAVRAETTSQDKMRKLFSFVPSWNLTCKDSLLQALKEIHPYLVMDLEQS
notes: Endogenous protein in cell-free supernatants; aggregated (speck) form; also called Microglia released ASC specks
Consider B2, for which the binding result with TAMRA-labelled Aβ1-42 is “binds”.

The record behind these values is patent US20200339670A1 (published 2020).
